From KR20240007815A (dated 2024)
Each block holds one molecule with its values, some of them ahead of it.

Legend:
[1] = molecular target: 인간 BDCA-2 (Blood dendritic cell antigen 2, CLEC4C) (human) (UniProt Q8WTT0); assay: flow cytometry, double staining of human PBMC with anti-CD123 and anti-BDCA-2
[2] = molecular target: 인간 BDCA-2 (Blood dendritic cell antigen 2, CLEC4C) (human) (UniProt Q8WTT0); assay: flow cytometry, double staining of human PBMC with anti-CD123 and 201A
[3] = molecular target: T1, 인간 BDCA-2 (Blood dendritic cell antigen 2, CLEC4C) (human, UniProt Q8WTT0 1-213); assay: flow cytometry on 293 cells expressing human BDCA-2, anti-human IgG-APC secondary
T1 construct: whole, on cells; also called human BDCA-2
T1 sequence (looked up): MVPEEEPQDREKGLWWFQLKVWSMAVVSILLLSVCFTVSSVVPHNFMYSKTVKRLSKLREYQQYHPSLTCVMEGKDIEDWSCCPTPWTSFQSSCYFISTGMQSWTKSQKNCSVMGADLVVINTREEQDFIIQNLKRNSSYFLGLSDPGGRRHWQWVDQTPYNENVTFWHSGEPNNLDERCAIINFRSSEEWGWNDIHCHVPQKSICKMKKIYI

Molecule: anti-BDCA-2 (AC144, Miltenyi) (antibody)
% CD123+ BDCA-2+ 세포 (donor-1 PBMC) [1]: 0.51%
% CD123+ BDCA-2+ 세포 (donor-2 PBMC) [1]: 0.15%

B2: 201A 인간화 항체 201H (antibody, human IgG1, kappa, V domains shown)
VH: EVQLVESGGGLVKPGGSLRLSCAASGFTFSSYTMSWVRQAPGKGLEWVATISSGGSYTYYPDSVKGRFTISRDNAKNSLYLQMNSLRAEDTAVYYCTRDRGDYDYDEGYYFDYWGQGTLVTVSS
VL: DIVLTQSPASLAVSPGQRATITCRASASVDSYGNSFMHWYQQKPGQPPKLLIYLASNLESGVPARFSGSGSRTDFTLTINPVEANDTANYYCQQNNEDPRTFGGGTKVEIKR
notes: Humanised antibody made in Expi293 cells, purified on protein G; detected with anti-human IgG Fc
binding result [3]: binds

Now from value to molecule:

% CD123+ BDCA-2+ 세포 (donor-1 PBMC) [2]: 0.65%
% CD123+ BDCA-2+ 세포 (donor-2 PBMC) [2]: 0.16%
B1: 인간 BDCA-2에 결합하는 마우스 단일클론 항체 201A (antibody, mouse IgG2a, kappa, V domains shown)
VH: DVKLVESGGGLVKPGGSLNLSCAASGFTFSSYTMSWVRQNPEKRLEWVATISSGGSYTYYPDSVKGRFTISRDNAKNTLYLQMSSLKSEDTAMYYCTRDRGDYDYDEGYYFDYWGQGTTLTVSS
VL: NIVLTQSPASLAVSLGQRATISCRASASVDSYGNSFMHWYQQKPGQPPKLLIYLASNLESGVPARFSGSGSRTDFTLTIDPVEADDAATYYCQQNNEDPRTFGGGTKLEIKR

binding result [3]: binds
B3: 201A 키메라 항체 201C (antibody, human IgG1, kappa, V domains shown)
VH: DVKLVESGGGLVKPGGSLNLSCAASGFTFSSYTMSWVRQNPEKRLEWVATISSGGSYTYYPDSVKGRFTISRDNAKNTLYLQMSSLKSEDTAMYYCTRDRGDYDYDEGYYFDYWGQGTTLTVSS
VL: NIVLTQSPASLAVSLGQRATISCRASASVDSYGNSFMHWYQQKPGQPPKLLIYLASNLESGVPARFSGSGSRTDFTLTIDPVEADDAATYYCQQNNEDPRTFGGGTKLEIKR
notes: Chimeric antibody made in Expi293 cells, purified on protein G; detected with anti-human IgG Fc
